The assay deals with PwNAC11-cYFP fusion protein (Picea wilsonii).

B1: ABF3 in pSPYNE (BiFC fusion) (natural protein)
chain: MGSRLNFKSFVDGVSEQQPTVGTSLPLTRQNSVFSLTFDEFQNSWGGGIGKDFGSMNMDELLKNIWTAEESHSMMGNNTSYTNISNGNSGNTVINGGGNNIGGLAVGVGGESGGFFTGGSLQRQGSLTLPRTISQKRVDDVWKELMKEDDIGNGVVNGGTSGIPQRQQTLGEMTLEEFLVRAGVVREEPQPVESVTNFNGGFYGFGSNGGLGTASNGFVANQPQDLSGNGVAVRQDLLTAQTQPLQMQQPQMVQQPQMVQQPQQLIQTQERPFPKQTTIAFSNTVDVVNRSQPATQCQEVKPSILGIHNHPMNNNLLQAVDFKTGVTVAAVSPGSQMSPDLTPKSALDASLSPVPYMFGRVRKTGAVLEKVIERRQKRMIKNRESAARSRARKQAYTMELEAEIAQLKELNEELQKKQVEIMEKQKNQLLEPLRQPWGMGCKRQCLRRTLTGPW
For B1, the dual-luciferase assay in tobacco: activation of the ERD1 promoter reporter on simultaneous expression of PwNAC11 and ABF3, against the control group (PwNAC11 alone 2.67-fold over empty vector) came out at 3.04 fold.

The values above are taken from PMC8269012.
